From US20090068110A1, “ANTIBODIES TO INSULIN-LIKE GROWTH FACTOR RECEPTOR” (Genentech, Inc., priority 2006, published 2009)

B1: 10H5: mouse monoclonal anti-IGF-1R antibody from hybridoma 10H5.3.4, ATCC PTA-7007 (antibody, V domains shown)
VH: QVQLQQPGAELVKPGASVTLSCKASGYTFTRFWIHWVKQRPGQGLEWIGEINPSNGRTNYNENFKNKATLTVDTSSSTAYMQLSSLTSEVSVVYYCARGGRLDQWGQGTT
VL: DIVMTQSQKFMSTSLGDRVSVTCKASQNVGSNVAWYQQKPGQSPEALIYSASYRYSGVPDRFTGSGSGTDFTLTISNVQSEDLAEYFCHQYNNYPYTFGGGTKVEIKR
B2: 9F2: mouse monoclonal anti-IGF-1R antibody from hybridoma 9F2.6.2, ATCC PTA-7018 (antibody, V domains shown)
VH: QIQLVQSGPELKKPGETVKISCKASGYTLANYGMNWVKQAPGKGFKWMGWINTNTGKPTYSDEFKGRFVFSLETSASTAYLLINNLSNEDTATYFCARSIYYYGSRYFNVWGAGTT
VL: DIQMTQSTSSLSASLGDRVTISCRASQDINNYLTWYQQKPDGTVKLLIYYTSRLHSGVPSRFSGSGSGTDYSLTITNLEQEDFATYFCQQGNTLPWTFGEGTKVEIKR

Experiments:
[1] = biological target: T1, murine IGF-1R (Mus musculus, UniProt Q60751); test: BIACORE surface-plasmon resonance, murine IGF-1R; format: binding
T1 construct: evaluated against human and murine IGF-1R-ECD
T1 sequence (Q60751 31-737 limits assumed): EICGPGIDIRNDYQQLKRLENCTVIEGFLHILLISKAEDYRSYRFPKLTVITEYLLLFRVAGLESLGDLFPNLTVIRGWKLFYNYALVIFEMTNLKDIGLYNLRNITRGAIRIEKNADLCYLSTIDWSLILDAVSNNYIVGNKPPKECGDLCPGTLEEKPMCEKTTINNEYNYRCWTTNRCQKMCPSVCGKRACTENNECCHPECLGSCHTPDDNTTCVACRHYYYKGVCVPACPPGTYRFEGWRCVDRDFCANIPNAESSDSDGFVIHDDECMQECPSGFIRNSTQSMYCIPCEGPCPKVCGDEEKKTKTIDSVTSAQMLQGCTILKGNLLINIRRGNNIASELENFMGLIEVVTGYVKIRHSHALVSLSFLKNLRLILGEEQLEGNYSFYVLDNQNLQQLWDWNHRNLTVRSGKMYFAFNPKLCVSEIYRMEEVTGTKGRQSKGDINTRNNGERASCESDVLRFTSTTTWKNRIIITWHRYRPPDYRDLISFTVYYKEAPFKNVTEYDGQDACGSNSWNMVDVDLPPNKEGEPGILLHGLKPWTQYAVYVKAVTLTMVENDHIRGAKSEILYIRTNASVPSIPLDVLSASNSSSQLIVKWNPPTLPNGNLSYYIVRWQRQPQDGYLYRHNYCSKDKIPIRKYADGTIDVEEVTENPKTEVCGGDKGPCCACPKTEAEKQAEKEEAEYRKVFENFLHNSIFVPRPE
T1 sequence (Q60751 742-936 limits assumed): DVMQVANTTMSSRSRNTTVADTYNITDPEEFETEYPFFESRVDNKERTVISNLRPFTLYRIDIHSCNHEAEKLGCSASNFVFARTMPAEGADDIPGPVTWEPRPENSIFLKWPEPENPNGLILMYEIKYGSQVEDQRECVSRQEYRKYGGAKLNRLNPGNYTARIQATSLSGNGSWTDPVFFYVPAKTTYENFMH
Description: Before HVR grafting, murine 2B4, 9F2, and 10H5Fab binding affinities were evaluated against human and murine IGF-1R-ECD using BIACORE™ instrument analysis. The procedure used was that for BIACORE™ instrument analyses generally, wherein the analyte was anti-IGF-1R Fab (500 nM-[…]; two-fold serial dilution), the ligand was IGF-1R (about 500 RU)-coated CM5 sensor chip, and the temperature was 25° C.
Binding affinities of selected antibodies to IGF-1R were determined by surface plasmon resonance measurements on a BIACORE™ 3000 instrument (BIAcore, Inc.). Human, murine, or cynomolgus-monkey IGF-1R was immobilized at a density of about 500 RU on the flow cells of a PIONEER™ CM5 sensor chip. Immobilization was achieved by random coupling through amino groups using a protocol provided by the manufacturer. Sensorgrams were recorded for binding of anti-IGF-1R Fab or IgG to these surfaces by injection of a series of solutions ranging from 500 nM to 3.1 nM and 250 nM to 0.78 nM in two-fold increments, respectively. The signal from the reference cell was subtracted from the observed sensorgram. Kinetic constants were calculated by non-linear regression analysis of the data according to a 1:1 Languir binding model using software supplied by the manufacturer.

[2] = biological target: T2, human IGF-1R-ECD (Homo sapiens, UniProt P08069); test: competitive ELISA, blocking of IGF-I/II and IGF-1R interaction; format: binding; conditions: antibody 100 nM to 0.0976 nM, biotinyl-IGF-I or IGF-II 60 ng/ml
T2 construct: containing the extracellular domain (ECD, amino acids 1-902) tagged with 10 or 12 histidine residues at the carboxyl terminus; His10 or His12 (C); made in house; host or cells: CHO cells
Description: To determine whether the anti-IGF-1R antibodies could block ligand/receptor interaction, competitive ELISA was utilized. Human IGF-1R-ECD was coated overnight at 4° C. at 1 μg/ml in a 96-well immunoplate (Nalge Nunc International, Rochester, N.Y., USA). The ELISA plate was washed with wash buffer (PBS, 0.05% TWEEN™ 20 surfactant, pH 7.4), and 150 μl/well of blocking buffer (PBS with 0.5% BSA) was added for one hour at room temperature with gentle agitation. Purified anti-IGF-1R antibodies were first subjected to a two-fold dilution from 100 nM to 0.0976 nM in assay buffer (PBS, 0.5% BSA and 0.05% TWEEN™ 20 surfactant, pH 7.4) and added to the immunoplate to incubate at room temperature for one hour. Biothinyl-IGF-I or IGF-II at 60 ng/ml concentrations (Cell Science, Canton, Mass., USA) was then added and incubated for another 30 minutes. The ELISA plate was washed three times, and 100 μl/well of streptavidin-HRP (GE Healthcare, Piscataway, N.J., USA) at a dilution of 1:6,000 was added for 20 minutes. Color development was conducted as described in conjunction with the direct ELISA. The selected anti-IGF-1R antibodies inhibited IGF-I or IGF-II binding to IGF-1R to various degrees (FIGS. 19A and 19B for IGF-I and IGF-II, respectively).

[3] = test system: PC3; test: cell viability assay, PC3; format: cell-based, human; parameters: key: +: growth inhibition; −: no or weak effect; conditions: PC3, Prostate Adenocarcinoma
Description: (§1) The different cell lines were cultured in their respective culture media at 37° C. in a humidified atmosphere of 5% CO2. Subsequently, cells were detached from tissue-culture flasks using the cell-dissociation solution, TRIPLE SELECT™ solution (InVitrogen, Carlsbad, Calif., USA), and centrifuged at 1000 rpm for five minutes. Detached cells were washed once with PBS, counted, and seeded in 96-well plates (Corning, N.Y., USA) at 2000 cells per well in 100 μL of culture media. After an overnight incubation at 37° C. in a humidified atmosphere of 5% CO2, the cell-culture medium was replaced with 50 μL of starvation medium consisting of serum-free RPMI 1640™ medium without phenol red. The cells were then starved for five hours in the incubator before addition of 25 μL of each anti-IGF-1R monoclonal antibody at various dilutions in serum-free RPMI 1640™ phenol red-free media. Later, 25 μL of phenol red-free RPMI 1640™ media supplemented with 4% of fetal bovine serum (FBS) (Sigma) with or without 4 ng/ml of human recombinant IGF-I were added on top of the 50 μL of antibody. The cells were then placed at 37° C. with 5% CO2 for 5 to 6 days. At the end of the assay, cell viability was measured using the […]-GLO® kit according to the manufacturer's instructions (Promega, Madison, Wis., USA).

[4] = test system: DU145; test: cell viability assay, DU145; format: cell-based, human; parameters: key: +: growth inhibition; −: no or weak effect; conditions: DU145, Prostate Adenocarcinoma
Description: as §1

[5] = test system: T47D; test: cell viability assay, T47D; format: cell-based, human; parameters: key: +: growth inhibition; −: no or weak effect; conditions: Breast Ductal Carcinoma
Description: as §1

[6] = test system: HT29; test: cell viability assay, HT29; format: cell-based, human; parameters: key: +: growth inhibition; −: no or weak effect; conditions: HT29, Colorectal Adenocarcinoma
Description: as §1

[7] = test system: HMEC; test: cell viability assay, HMEC; format: cell-based; parameters: key: +: growth inhibition; −: no or weak effect; conditions: Human Mammary Epithelial Cell
Description: as §1

[8] = test system: SJCRH30; test: cell viability assay, SJCRH30; format: cell-based, human; parameters: key: +: growth inhibition; −: no or weak effect; conditions: SJCRH30, Rhabdomyosarcoma
Description: as §1

[9] = biological target: IGF-1R (Homo sapiens, UniProt P08069); test: KIRA assay of IGF-1R phosphorylation in MCF7 cells; format: cell-based; parameters: IGF-1R is normally localized at the plasma membrane of MCF7 cells; endogenous in cells; host or cells: MCF7; conditions: IGF-I 10 ng/ml or IGF-II 50 ng/ml; ranking upon IGF-II stimulation
Description: Also examined was whether the blocking activity of these antibodies was sufficient to interfere with receptor activation, which is measured by IGF-1R phosphorylation. A KIRA assay (kinase receptor activation) was utilized to perform quantitative analysis of IGF-1R phosphorylation in MCF7 cells. Anti-IGF-1R antibodies in serial dilutions (0.19 to 200 nM in medium) were added to MCF7 cells in 96-well plates for one hour. IGF-I (10 ng/ml) or IGF-11 (50 ng/ml) was subsequently added and incubated for ten minutes. The cells were lysed, and the resulting lysates were transferred to an ELISA plate, which was coated with IGF-1R-capturing antibody 3B7 (250 ng/well). After incubation for two hours, the cell lysate was removed, and the plates were washed. Phosphotyrosine-specific antibody 4G10 (Upstate, Charlottesville, Va., USA) was added to detect IGF-1R phosphorylation through TMB peroxidase substrate.

Molecule	binding to mouse IGF-1R [1]	inhibition of IGF-I or IGF-II binding to IGF-1R [2]	Effect of IR3, 6D2, 9F2, and 10H5 [3]	Effect of IR3, 6D2, 9F2, and 10H5 [4]	Effect of IR3, 6D2, 9F2, and 10H5 [5]	Effect of IR3, 6D2, 9F2, and 10H5 [6]	Effect of IR3, 6D2, 9F2, and 10H5 [7]	Effect of IR3, 6D2, 9F2, and 10H5 [8]	inhibition of IGF-I/II-mediated IGF-1R phosphorylation (KIRA) [9]
B1	not to mouse IGF-1R or human insulin receptor	most potent group	−	−	−	+	−	+	most effective group
B2	not to mouse IGF-1R or human insulin receptor	most potent group	−	−	−	+	−	+	most effective group
